This data set deals with PARP2 WT (human, UniProt Q9UGN5 1-583). Description: fluorescence polarization; HPF1 not mentioned for this value; 10 mM HEPES pH 8.0, 150 mM NaCl, 0.1 mg/ml BSA, 0.1 mM TCEP, 0.1 mM EDTA, 25 C (FP). Conditions: protein: recombinant; tags: His6-TEV, tag cleaved; nicked dumbbell: two hairpins with TTTT loops, one strand. (In general: Polarisation of emitted light reports the rotation of a fluorescent probe.)

Broadly, the Kd is the equilibrium constant for the complex coming apart.

PARP2 WT, sequence (Q9UGN5 whole entry): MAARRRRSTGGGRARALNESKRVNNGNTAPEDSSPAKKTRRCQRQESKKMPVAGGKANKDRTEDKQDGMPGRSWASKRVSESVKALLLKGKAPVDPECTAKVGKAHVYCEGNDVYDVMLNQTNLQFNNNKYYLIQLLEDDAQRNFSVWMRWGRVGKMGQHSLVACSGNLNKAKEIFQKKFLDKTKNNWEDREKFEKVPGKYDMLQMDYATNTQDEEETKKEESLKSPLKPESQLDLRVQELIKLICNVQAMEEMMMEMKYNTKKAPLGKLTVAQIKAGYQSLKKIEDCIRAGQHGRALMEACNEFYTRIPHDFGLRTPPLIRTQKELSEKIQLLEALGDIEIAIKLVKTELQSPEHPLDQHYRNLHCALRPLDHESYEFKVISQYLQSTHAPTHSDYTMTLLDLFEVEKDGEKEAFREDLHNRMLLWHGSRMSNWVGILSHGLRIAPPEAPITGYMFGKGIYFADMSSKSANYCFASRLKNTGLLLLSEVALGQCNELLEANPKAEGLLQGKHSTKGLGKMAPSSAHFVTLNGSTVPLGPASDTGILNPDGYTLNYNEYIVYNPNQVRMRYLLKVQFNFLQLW

Regarding GGAAGTCTTTTGACTTCCTCGAAGCTTTTGCTTCGA (structured_DNA, 5'-phosphate) [fluorescein-labelled nicked dumbbell DNA, 5'-phosphate], the Kd worked out at 4.8 ± 2.9 nM.

Values taken from publication doi:10.1101/2025.07.01.662498, “Automodification of N-terminal serine residues in PARP2 impacts PARP2 release from DNA damage sites”.
